Assay results from the supplement of paper PMC10567573.

B1: TPRG1 (parent)
chain: ETIQGFWLLTKIDHWNNEKERILL

Variants of: B1
Test: protein stability index of a GFP-peptide fusion (GPS, HEK-293T) (PSI 1-6); higher = more stable
Conditions: c terminus: a fixed tail appended
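Further: lentivirally expressed fusions sorted by FACS into six bins by GFP to DsRed ratio, PSI derived from sequencing read proportions per bin multiplied by bin number.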

Variant	protein stability index
PTIQGFWLLTKIDHWNNEKERILL [E1P]	2.65
ETIQGFWLLTKIDHWNNEKEQILL [R21Q]	3.52
ETIQGFWLLTKIDHWNNEKEDILL [R21D]	1.3
ETIQGFWLLTKIDHWNNEKEPILL [R21P]	2.58
ETIQGFWLLTKIDHWNNEKEKILL [R21K]	1.66
ETIQGFWLLTKIDHWNNEKELILL [R21L]	2.75
ETIQGFWLLTKIDEWNNEKERILL [H14E]	2.51
ETIQGFWLLTKIDIWNNEKERILL [H14I]	2.49
ETIQGFWLLTKIDRWNNEKERILL [H14R]	4.13
ETIQGFWLLTKIDCWNNEKERILL [H14C]	1.39
ETIQGFWLLTKIDDWNNEKERILL [H14D]	2.88
ETIQGFWLLTKIDHWNNEKERPLL [I22P]	1.61
ETIQGFWLLTKIDHWNNEKERHLL [I22H]	2.02
ETIQGFWLLTKIDHWNNEKERFLL [I22F]	3.5
ETIQGFWLLTKIDHWNNEKERMLL [I22M]	3.17
ETIQGFWLLTKIDHWNNEKERVLL [I22V]	3.42
ETIQGFWLLTKIDHWNNEKERQLL [I22Q]	3.38
ETIQGFWLLTKIDHWNNEKERELL [I22E]	2.16
ETIQGFWLLTKIDHWNNEKERYLL [I22Y]	1.63
ETIQGFWLLTKIDHWNNEKERDLL [I22D]	1.01
ETIQGFWLLTKIDHWNNEKERGLL [I22G]	1.89
ETIQGFWLLTKIDHWNNEKERNLL [I22N]	2.6
ETIQGFWLLSKIDHWNNEKERILL [T10S]	2.49
ETIQGFWLLWKIDHWNNEKERILL [T10W]	2.45

Variant	protein stability index
ETIQGFWLLRKIDHWNNEKERILL [T10R]	1.01
ETIQGFWLLHKIDHWNNEKERILL [T10H]	2.31
ETIQGFWLLYKIDHWNNEKERILL [T10Y]	2.44
ETIQGFWLLAKIDHWNNEKERILL [T10A]	3.73
ETIQGFWLLPKIDHWNNEKERILL [T10P]	1.65
ETIQGFWLLNKIDHWNNEKERILL [T10N]	1.34
ETIQHFWLLTKIDHWNNEKERILL [G5H]	2.36
ETIQKFWLLTKIDHWNNEKERILL [G5K]	2.04
ETIQPFWLLTKIDHWNNEKERILL [G5P]	2.33
ETIQSFWLLTKIDHWNNEKERILL [G5S]	2
ETIQYFWLLTKIDHWNNEKERILL [G5Y]	2.95
ETIQGFWLLTKIDHWNNEKQRILL [E20Q]	2.27
ETIQGFWLLTKIDHWNNEKKRILL [E20K]	2.67
ETIQGFWLLTKIDHWNNEKPRILL [E20P]	2.37
ETIQGFWLLTKIDHWNNEKNRILL [E20N]	2.53
ETIQGFWLLTKIDHWNNEKARILL [E20A]	3.4
ETIQGFWLLTKIDHWNNEKDRILL [E20D]	3.18
ETIQGFSLLTKIDHWNNEKERILL [W7S]	2.1
ETIQGFTLLTKIDHWNNEKERILL [W7T]	1.51
ETIQGFGLLTKIDHWNNEKERILL [W7G]	2.31
ETIQGFVLLTKIDHWNNEKERILL [W7V]	3.28
ETIQGFKLLTKIDHWNNEKERILL [W7K]	1.86
ETIQGFPLLTKIDHWNNEKERILL [W7P]	2.56
ETIQGFMLLTKIDHWNNEKERILL [W7M]	3.58

Variant	protein stability index
ETIQGFDLLTKIDHWNNEKERILL [W7D]	2.25
ETIQGFLLLTKIDHWNNEKERILL [W7L]	2.08
ETIQGFQLLTKIDHWNNEKERILL [W7Q]	1.83
ETIQGFHLLTKIDHWNNEKERILL [W7H]	1.04
ETIQGFRLLTKIDHWNNEKERILL [W7R]	2.23
ETIQGFALLTKIDHWNNEKERILL [W7A]	1.91
ETIQGFWLLTKIDHWNNERERILL [K19R]	4.12
ETIQGFWLLTKIDHWNNEYERILL [K19Y]	2.27
ETIQGFWLLTKIDHWNNEPERILL [K19P]	2.82
ETIQGFWLLTKIDHWNNEQERILL [K19Q]	1.52
ETIQGFWLLTKIDHWNNELERILL [K19L]	2.92
ETIQGFWLLTKIDHWNNETERILL [K19T]	1.78
ETIQGFWLLTKIDHWNNEAERILL [K19A]	2.21
ETIQGFWLLTKIDHWNNECERILL [K19C]	2.12
ETIQGFWLLTKIDHWNNVKERILL [E18V]	3.83
ETIQGFWLLTKIDHWNNSKERILL [E18S]	3.54
ETIQGFWLLTKIDHWNNMKERILL [E18M]	2.79
ETIQGFWLLTKIDHWNNCKERILL [E18C]	2.45
ETIQGFWLLTKIDHWNNWKERILL [E18W]	2.03
ETIQGFWLLTKIDHWNNAKERILL [E18A]	2.8
ETIQGFWLLTGIDHWNNEKERILL [K11G]	2.08
ETIQGFWLLTDIDHWNNEKERILL [K11D]	1.93
ETIQGFWLLTIIDHWNNEKERILL [K11I]	2.32
ETIQGFWLLTAIDHWNNEKERILL [K11A]	1.85

Variant	protein stability index
ETIQGFWLLTSIDHWNNEKERILL [K11S]	1.71
ETIEGFWLLTKIDHWNNEKERILL [Q4E]	2.23
ETIMGFWLLTKIDHWNNEKERILL [Q4M]	3.23
ETITGFWLLTKIDHWNNEKERILL [Q4T]	1.88
ETIQGFWLLTKIDHWQNEKERILL [N16Q]	1.77
ETIQGFWLLTKIDHWKNEKERILL [N16K]	4.29
ETIQGFWLLTKIDHWSNEKERILL [N16S]	2.12
ETIQGFWLLTKIDHWINEKERILL [N16I]	3.07
ETIQGFWLLTKIDHWFNEKERILL [N16F]	2.65
ETIQGFWLLTKIDHWTNEKERILL [N16T]	3.58
ETIQGFWSLTKIDHWNNEKERILL [L8S]	1.56
ETIQGFWGLTKIDHWNNEKERILL [L8G]	1.61
ETIQGFWALTKIDHWNNEKERILL [L8A]	2.08
ETIQGFWRLTKIDHWNNEKERILL [L8R]	2.26
ETIQGFWTLTKIDHWNNEKERILL [L8T]	2.54
ETIQGFWDLTKIDHWNNEKERILL [L8D]	2.34
ETIQGFWNLTKIDHWNNEKERILL [L8N]	1.99
ETIQGFWLLTKITHWNNEKERILL [D13T]	1.69
ETIQGFWLLTKIKHWNNEKERILL [D13K]	3.06
ETIQGFWLLTKIFHWNNEKERILL [D13F]	2.23
ETIQGFWLLTKIAHWNNEKERILL [D13A]	3.1
ETIQGFWLLTKINHWNNEKERILL [D13N]	3.41
